# From the supplement of paper PMC5998384
# Experiments:
# [1] = system: HeLa Kyoto; test: solubility in G1/S (NP-40 vs SDS abundance) (log2 ratio); higher = more soluble; conditions: cell cycle stage: G1/S
# [2] = system: HeLa Kyoto; test: melting temperature (median over replicates), in situ; higher = more thermally stable
# [3] = system: HeLa Kyoto; test: solubility change mitosis vs G1/S (difference of NP-40 vs SDS log2 ratios) (log2 ratio difference); higher = more soluble in mitosis
# [4] = system: HeLa Kyoto; test: thermal stability score vs G1/S (z-score of summed log2 fold changes over temperatures); higher = more thermally stable than in G1/S
# [5] = cell cycle stage: early G1 (4.5 h after nocodazole release)
# 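Throughout, for melting temperature (median over replicates), in situ: HeLa Kyoto cells synchronized by double thymidine or nocodazole block, proteins quantified by TMT10plex mass spectrometry, three independent biological replicates.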
# 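Throughout, for solubility change mitosis vs G1/S (difference of NP-40 vs SDS log2 ratios): synchronized HeLa Kyoto cells (double thymidine block for G1/S, nocodazole release for mitosis), protein amounts in NP-40 versus SDS lysates quantified by mass spectrometry, three biological replicates.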
# 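Throughout, for solubility in G1/S (NP-40 vs SDS abundance): HeLa Kyoto cells arrested at G1/S by double thymidine block, proteins quantified by TMT10plex mass spectrometry in mild NP-40 versus SDS extracts, three biological replicates.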
# 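Throughout, for thermal stability score vs G1/S (z-score of summed log2 fold changes over temperatures): synchronized HeLa Kyoto cells, proteins quantified by TMT10plex mass spectrometry, three biological replicates, mitosis taken 0.5 h after nocodazole release, G1/S directly after double thymidine block.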
Sequence,solubility in G1/S (log2) [1],melting temperature ([2]; cell cycle stage: G1/S) [°C],melting temperature ([2]; cell cycle stage: mitosis) [°C],solubility change mitosis (log2) [3],"thermal stability score [4, 5]",thermal stability score ([4]; cell cycle stage: mitosis)
MKSRFSTIDLRAVLAELNASLLGMRVNNVYDVDNKTYLIRLQKPDFKATLLLESGIRIHTTEFEWPKNMMPSSFAMKCRKHLKSRRLVSAKQLGVDRIVDFQFGSDEAAYHLIIELYDRGNIVLTDYEYVILNILRFRTDEADDVKFAVRERYPLDHARAAEPLLTLERLTEIVASAPKGELLKRVLNPLLPYGPALIEHCLLENGFSGNVKVDEKLETKDIEKVLVSLQKAEDYMKTTSNFSGKGYIIQKREIKPSLEADKPVEDILTYEEFHPFLFSQHSQCPYIEFESFDKAVDEFYSKIEGQKIDLKALQQEKQALKKLDNVRKDHENRLEALQQAQEIDKLKGELIEMNLQIVDRAIQVVRSALANQIDWTEIGLIVKEAQAQGDPVASAIKELKLQTNHVTMLLRNPYLLSEEEDDDVDGDVNVEKNETEPPKGKKKKQKNKQLQKPQKNKPLLVDVDLSLSAYANAKKYYDHKRYAAKKTQKTVEAAEKAFKSAEKKTKQTLKEVQTVTSIQKARKVYWFEKFLWFISSENYLIIGGRDQQQNEIIVKRYLTPGDIYVHADLHGATSCVIKNPTGEPIPPRTLTEAGTMALCYSAAWDARVITSAWWVYHHQVSKTAPTGEYLTTGSFMIRGKKNFLPPSYLMMGFSFLFKVDESCVWRHQGERKVRVQDEDMETLASCTSELISEEMEQLDGGDTSSDEDKEEHETPVEVELMTQVDQEDITLQSGRDELNEELIQEESSEDEGEYEEVRKDQDSVGEMKDEGEETLNYPDTTIDLSHLQPQRSIQKLASKEESSNSSDSKSQSRRHLSAKERREMKKKKLPSDSGDLEALEGKDKEKESTVHIETHQNTSKNVAAVQPMKRGQKSKMKKMKEKYKDQDEEDRELIMKLLGSAGSNKEEKGKKGKKGKTKDEPVKKQPQKPRGGQRVSDNIKKETPFLEVITHELQDFAVDDPHDDKEEQDLDQQGNEENLFDSLTGQPHPEDVLLFAIPICAPYTTMTNYKYKVKLTPGVQKKGKAAKTALNSFMHSKEATAREKDLFRSVKDTDLSRNIPGKVKVSAPNLLNVKRK [NEMF],-0.354,50.8,50.2,-0.0231,-0.477,-1.01
MKSYTPYFILLWSAVGIAKAAKIIIVPPIMFESHMYIFKTLASALHERGHHTVFLLSEGRDIAPSNHYSLQRYPGIFNSTTSDAFLQSKMRNIFSGRLTAIELFDILDHYTKNCDLMVGNHALIQGLKKEKFDLLLVDPNDMCGFVIAHLLGVKYAVFSTGLWYPAEVGAPAPLAYVPEFNSLLTDRMNLLQRMKNTGVYLISRLGVSFLVLPKYERIMQKYNLLPEKSMYDLVHGSSLWMLCTDVALEFPRPTLPNVVYVGGILTKPASPLPEDLQRWVNGANEHGFVLVSFGAGVKYLSEDIANKLAGALGRLPQKVIWRFSGPKPKNLGNNTKLIEWLPQNDLLGHSKIKAFLSHGGLNSIFETIYHGVPVVGIPLFGDHYDTMTRVQAKGMGILLEWKTVTEKELYEALVKVINNPSYRQRAQKLSEIHKDQPGHPVNRTIYWIDYIIRHNGAHHLRAAVHQISFCQYFLLDIAFVLLLGAALLYFLLSWVTKFIYRKIKSLWSRNKHSTVNGHYHNGILNGKYKRNGHIKHEKKVK [UGT8],-0.021,–,53.8,-0.0716,0.353,-0.0434
MKVKMLSRNPDNYVRETKLDLQRVPRNYDPALHPFEVPREYIRALNATKLERVFAKPFLASLDGHRDGVNCLAKHPEKLATVLSGACDGEVRIWNLTQRNCIRTIQAHEGFVRGICTRFCGTSFFTVGDDKTVKQWKMDGPGYGDEEEPLHTILGKTVYTGIDHHWKEAVFATCGQQVDIWDEQRTNPICSMTWGFDSISSVKFNPIETFLLGSCASDRNIVLYDMRQATPLKKVILDMRTNTICWNPMEAFIFTAANEDYNLYTFDMRALDTPVMVHMDHVSAVLDVDYSPTGKEFVSASFDKSIRIFPVDKSRSREVYHTKRMQHVICVKWTSDSKYIMCGSDEMNIRLWKANASEKLGVLTSREKAAKDYNQKLKEKFQHYPHIKRIARHRHLPKSIYSQIQEQRIMKEARRRKEVNRIKHSKPGSVPLVSEKKKHVVAVVK [DCAF13],-2.16,54.8,–,0.446,-1.4,-1.29
MKVTVCFGRTRVVVPCGDGHMKVFSLIQQAVTRYRKAIAKDPNYWIQVHRLEHGDGGILDLDDILCDVADDKDRLVAVFDEQDPHHGGDGTSASSTGTQSPEIFGSELGTNNVSAFQPYQATSEIEVTPSVLRANMPLHVRRSSDPALIGLSTSVSDSNFSSEEPSRKNPTRWSTTAGFLKQNTAGSPKTCDRKKDENYRSLPRDTSNWSNQFQRDNARSSLSASHPMVGKWLEKQEQDEDGTEEDNSRVEPVGHADTGLEHIPNFSLDDMVKLVEVPNDGGPLGIHVVPFSARGGRTLGLLVKRLEKGGKAEHENLFRENDCIVRINDGDLRNRRFEQAQHMFRQAMRTPIIWFHVVPAANKEQYEQLSQSEKNNYYSSRFSPDSQYIDNRSVNSAGLHTVQRAPRLNHPPEQIDSHSRLPHSAHPSGKPPSAPASAPQNVFSTTVSSGYNTKKIGKRLNIQLKKGTEGLGFSITSRDVTIGGSAPIYVKNILPRGAAIQDGRLKAGDRLIEVNGVDLVGKSQEEVVSLLRSTKMEGTVSLLVFRQEDAFHPRELNAEPSQMQIPKETKAEDEDIVLTPDGTREFLTFEVPLNDSGSAGLGVSVKGNRSKENHADLGIFVKSIINGGAASKDGRLRVNDQLIAVNGESLLGKTNQDAMETLRRSMSTEGNKRGMIQLIVARRISKCNELKSPGSPPGPELPIETALDDRERRISHSLYSGIEGLDESPSRNAALSRIMGESGKYQLSPTVNMPQDDTVIIEDDRLPVLPPHLSDQSSSSSHDDVGFVTADAGTWAKAAISDSADCSLSPDVDPVLAFQREGFGRQSMSEKRTKQFSDASQLDFVKTRKSKSMDLGIADETKLNTVDDQKAGSPSRDVGPSLGLKKSSSLESLQTAVAEVTLNGDIPFHRPRPRIIRGRGCNESFRAAIDKSYDKPAVDDDDEGMETLEEDTEESSRSGRESVSTASDQPSHSLERQMNGNQEKGDKTDRKKDKTGKEKKKDRDKEKDKMKAKKGMLKGLGDMFRFGKHRKDDKIEKTGKIKIQESFTSEEERIRMKQEQERIQAKTREFRERQARERDYAEIQDFHRTFGCDDELMYGGVSSYEGSMALNARPQSPREGHMMDALYAQVKKPRNSKPSPVDSNRSTPSNHDRIQRLRQEFQQAKQDEDVEDRRRTYSFEQPWPNARPATQSGRHSVSVEVQMQRQRQEERESSQQAQRQYSSLPRQSRKNASSVSQDSWEQNYSPGEGFQSAKENPRYSSYQGSRNGYLGGHGFNARVMLETQELLRQEQRRKEQQMKKQPPSEGPSNYDSYKKVQDPSYAPPKGPFRQDVPPSPSQVARLNRLQTPEKGRPFYS [PARD3],-0.137,47.7,49.3,0.111,0.772,2.38
MLCGRPRSSSDNRNFLRERAGLSSAAVQTRIGNSAASRRSPAARPPVPAPPALPRGRPGTEGSTSLSAPAVLVVAVAVVVVVVSAVAWAMANYIHVPPGSPEVPKLNVTVQDQEEHRCREGALSLLQHLRPHWDPQEVTLQLFTDGITNKLIGCYVGNTMEDVVLVRIYGNKTELLVDRDEEVKSFRVLQAHGCAPQLYCTFNNGLCYEFIQGEALDPKHVCNPAIFRLIARQLAKIHAIHAHNGWIPKSNLWLKMGKYFSLIPTGFADEDINKRFLSDIPSSQILQEEMTWMKEILSNLGSPVVLCHNDLLCKNIIYNEKQGDVQFIDYEYSGYNYLAYDIGNHFNEFAGVSDVDYSLYPDRELQSQWLRAYLEAYKEFKGFGTEVTEKEVEILFIQVNQFALASHFFWGLWALIQAKYSTIEFDFLGYAIVRFNQYFKMKPEVTALKVPE [ETNK1],-0.0579,53,51.9,-0.288,-1.17,-1.91
MLDSLLALGGLVLLRDSVEWEGRSLLKALVKKSALCGEQVHILGCEVSEEEFREGFDSDINNRLVYHDFFRDPLNWSKTEEAFPGGPLGALRAMCKRTDPVPVTIALDSLSWLLLRLPCTTLCQVLHAVSHQDSCPGDSSSVGKVSVLGLLHEELHGPGPVGALSSLAQTEVTLGGTMGQASAHILCRRPRQRPTDQTQWFSILPDFSLDLQEGPSVESQPYSDPHIPPVDPTTHLTFNLHLSKKEREARDSLILPFQFSSEKQQALLRPRPGQATSHIFYEPDAYDDLDQEDPDDDLDI [ELP5],0.313,54.9,53.9,-0.11,-2.95,-4.18
MLGGSLGSRLLRGVGGSHGRFGARGVREGGAAMAAGESMAQRMVWVDLEMTGLDIEKDQIIEMACLITDSDLNILAEGPNLIIKQPDELLDSMSDWCKEHHGKSGLTKAVKESTITLQQAEYEFLSFVRQQTPPGLCPLAGNSVHEDKKFLDKYMPQFMKHLHYRIIDVSTVKELCRRWYPEEYEFAPKKAASHRALDDISESIKELQFYRNNIFKKKIDEKKRKIIENGENEKTVS [REXO2],0.239,56.8,56.5,0.144,-2.25,-3.59
MLGRSLREVSAALKQGQITPTELCQKCLSLIKKTKFLNAYITVSEEVALKQAEESEKRYKNGQSLGDLDGIPIAVKDNFSTSGIETTCASNMLKGYIPPYNATVVQKLLDQGALLMGKTNLDEFAMGSGSTDGVFGPVKNPWSYSKQYREKRKQNPHSENEDSDWLITGGSSGGSAAAVSAFTCYAALGSDTGGSTRNPAAHCGLVGFKPSYGLVSRHGLIPLVNSMDVPGILTRCVDDAAIVLGALAGPDPRDSTTVHEPINKPFMLPSLADVSKLCIGIPKEYLVPELSSEVQSLWSKAADLFESEGAKVIEVSLPHTSYSIVCYHVLCTSEVASNMARFDGLQYGHRCDIDVSTEAMYAATRREGFNDVVRGRILSGNFFLLKENYENYFVKAQKVRRLIANDFVNAFNSGVDVLLTPTTLSEAVPYLEFIKEDNRTRSAQDDIFTQAVNMAGLPAVSIPVALSNQGLPIGLQFIGRAFCDQQLLTVAKWFEKQVQFPVIQLQELMDDCSAVLENEKLASVSLKQ [QRSL1],0.0331,50,50.4,-0.131,-0.191,-0.152
MLLLTRSPTAWHRLSQLKPRVLPGTLGGQALHLRSWLLSRQGPAETGGQGQPQGPGLRTRLLITGLFGAGLGGAWLALRAEKERLQQQKRTEALRQAAVGQGDFHLLDHRGRARCKADFRGQWVLMYFGFTHCPDICPDELEKLVQVVRQLEAEPGLPPVQPVFITVDPERDDVEAMARYVQDFHPRLLGLTGSTKQVAQASHSYRVYYNAGPKDEDQDYIVDHSIAIYLLNPDGLFTDYYGRSRSAEQISDSVRRHMAAFRSVLS [SCO2],0.334,50.5,51.5,-0.127,1.37,1.52
MLLSVPLLLGLLGLAVAEPAVYFKEQFLDGDGWTSRWIESKHKSDFGKFVLSSGKFYGDEEKDKGLQTSQDARFYALSASFEPFSNKGQTLVVQFTVKHEQNIDCGGGYVKLFPNSLDQTDMHGDSEYNIMFGPDICGPGTKKVHVIFNYKGKNVLINKDIRCKDDEFTHLYTLIVRPDNTYEVKIDNSQVESGSLEDDWDFLPPKKIKDPDASKPEDWDERAKIDDPTDSKPEDWDKPEHIPDPDAKKPEDWDEEMDGEWEPPVIQNPEYKGEWKPRQIDNPDYKGTWIHPEIDNPEYSPDPSIYAYDNFGVLGLDLWQVKSGTIFDNFLITNDEAYAEEFGNETWGVTKAAEKQMKDKQDEEQRLKEEEEDKKRKEEEEAEDKEDDEDKDEDEEDEEDKEEDEEEDVPGQAKDEL [CALR],0.0117,54.6,54.9,0.0133,3.64,3.96
